Drawing on a protein production outcome set (Wang et al. 2014), this text covers protein production for nine sequences.

The data set in a line: label from the status in PepcDB records.
Turning to “MGISNWQPTMRAACWMSGALVSLLAMAVATRELSAHVSVFQILFFRSACGLLIIVPLVWRAGWRKVATARPGLHVLRNATHFLAQYGWVYGIAFIPMAEVFAIEFTVPVWTALLAAVLLGERLTAARLLAVALGLAGVFVIVRPGSGMIHPAALAVLLGAVAFALAYIMTKMLARTETPLCILFYMTLVQLPLGLAPALANWSSPPPHVWPWILVVGTMGLATHYCLARAMALADATVVVPLDFLRLPLIAVVGAVFYGEAIEPLLFLGAGMILAGNLYSILAERRRPAMPRAARDGSH”, the protein production entry is reported as “failed”.

In the case of “MGKEYVVIGLGRFGGSIVRELNALDMDVMAIDHDENRVNEYSDIATHAVVADTTDEAVMKSLGIRNFDHVIVAIGENIQSSTLTTLILKELGVKKVTAKAQNDYHAKILNKIGADTVVHPERDMGRRIAHNVASASVLDYLELADEHSIVELKATEKMAGQSIIDLDIRAQYGINIIAIKRGKEFIISPNPNINLEIGDILIMIGHDNDLNRFEKNIATR”, the protein production entry is “failed”.

With “MGKFTQRLSLRVRLTLIFLILASVTWLLSSFVAWKQTTDNVDELFDTQLMLFAKRLSTLDLNEINAADRMAQTPNRLKHGHVDDDALTFAIFTHDGRMVLNDGDNGEDIPYSYQREGFADGQLVGEDDPWRFVWMTSPDGKYRIVVGQEWEYREDMALAIVAGQLIPWLVALPIMLIIMMVLLGRE”, the protein production entry is recorded as “not failed”.

Consider “MGKGGDIVVGNGKKYAAPLLVLGCVVFGLGSLIVRSVPVGSYAIAFWRLLISVFVFWFLARFFRQKFPKNRKTVRYALTAGVFLAFDLALWHESIHAVGPGISTLLNSLQIFFLSAIGVFFFGERLSGLKKAGLISAVAGVAMIAGAEFGYNGNAVWGFASGLVSGLMLALSMVFVRKTHEIEPVALFPSMMILSLGGAVSLVVPALLMDGGALYPTTWKDAGLVLVYGVVMQCFAWAMVAYAIPLLSLSLTGLLLLSEPVAALFIDYFGLGKPIEGVQWAGVALTLSAIYLGSLKRQSSH”, for which the protein production result is “failed”.

As for “MGKMRTPQEVPARLDALAEAARKLKFDVREPVDAGAGAIGAVHSLDYLRFLREAHARWKQLPDDWGDEVVSNVFVREPNALRGVLAQAARYLADGSCPVGPHTWQSAYWAAQCAISGAQTLLDGERHAYALCRPPGHHARRDAAGGFCYLNNAAIAAQMLTQRYKRVAILDTDMHHGQGIQEIFYERSDVLYVSIHGDPENFYPVVAGFENERGAGEGYGYNVNLPMPHGSPEPVFFDRLQQAQRAIELFQPDALVLSLGFDVFEKDPQAMVAVSANGFERLGQAIGAFKLPTLIVQEGGYYIEGLEDNAERFFAGLAKALEHHHHHH”, the protein production result is reported as “failed”.

As for “MGKRIAFWFEFASTYSYLSAMRIERAAADLGVTIAWEPFLLGPIFAAQGWTSSPFNLFPAKGRYMWRDMERLCARQGLPLTRPDPFPQNGLPAARLAMVAREMGHIAPFVRAVYAAQFGRGLVISDPQVLAECWAEAGLPPEAMEQAKSPEIKAALFAQGERAAALDLFGAPSFVVGEEVFWGDDRLDQALALAAQS”, the protein production result is given as “not failed”.

Turning to “MGKSIPVKTGLRGASAAVAGFIKSSKPIRPISSMDSSDKDSSSTTTTSETTRRFVPLSSVVSDCAKRWFKDTLEEAKAGNITMQVLLGQMYYSGYGVPKDARKVSSLFPPFQSLLFQVLGYNASDSDSESD”, the protein production result is “failed”.

Take “MGKVYKKVELVGTSEEGLEAAIQAALARARKTLRHLDWFEVKEIRGTIGEAGVKEYQVVLEVGFRLEET”: the protein production entry was “not failed”.

With “MGLALCGAAAQAQEKPNFLIIQCDHLTQRVVGAYGQTQGCTLPIDEVASRGVIFSNAYVGCPLSQPSRAALWSGMMPHQTNVRSNSSEPVNTRLPENVPTLGSLFSESGYEAVHFGKTHDMGSLRGFKHKEPVAKPFTDPEFPVNNDSFLDVGTCEDAVAYLSNPPKEPFICIADFQNPHNICGFIGENAGVHTDRPISGPLPELPDNFDVEDWSNIPTPVQYICCSHRRMTQAAHWNEENYRHYIAAFQHYTKMVSKQVDSVLKALYSTPAGRNTIVVIMADHGDGMASHRMVTKHISFYDEMTNVPFIFAGPGIKQQKKPVDHLLTQPTLDLLPTLCDLAGIAVPAEKAGISLAPTLRGEKQKKSHPYVVSEWHSEYEYVTTPGRMVRGPRYKYTHYLEGNGEELYDMKKDPGERKNLAKDPKYSKILAEHRALLDDYITRSKDDYRSLKVDADPRCRNHTPGYPSHEGPGAREILKRK”, the protein production result was “not failed”.
